Measurements as given in patent US20250295737A1 (AstraZeneca / MedImmune, published 2025).
Substitutions are numbered along the chain they refer to.

T1: human RXFP1 (human, UniProt Q9HBX9 1-757)
T1 sequence (looked up): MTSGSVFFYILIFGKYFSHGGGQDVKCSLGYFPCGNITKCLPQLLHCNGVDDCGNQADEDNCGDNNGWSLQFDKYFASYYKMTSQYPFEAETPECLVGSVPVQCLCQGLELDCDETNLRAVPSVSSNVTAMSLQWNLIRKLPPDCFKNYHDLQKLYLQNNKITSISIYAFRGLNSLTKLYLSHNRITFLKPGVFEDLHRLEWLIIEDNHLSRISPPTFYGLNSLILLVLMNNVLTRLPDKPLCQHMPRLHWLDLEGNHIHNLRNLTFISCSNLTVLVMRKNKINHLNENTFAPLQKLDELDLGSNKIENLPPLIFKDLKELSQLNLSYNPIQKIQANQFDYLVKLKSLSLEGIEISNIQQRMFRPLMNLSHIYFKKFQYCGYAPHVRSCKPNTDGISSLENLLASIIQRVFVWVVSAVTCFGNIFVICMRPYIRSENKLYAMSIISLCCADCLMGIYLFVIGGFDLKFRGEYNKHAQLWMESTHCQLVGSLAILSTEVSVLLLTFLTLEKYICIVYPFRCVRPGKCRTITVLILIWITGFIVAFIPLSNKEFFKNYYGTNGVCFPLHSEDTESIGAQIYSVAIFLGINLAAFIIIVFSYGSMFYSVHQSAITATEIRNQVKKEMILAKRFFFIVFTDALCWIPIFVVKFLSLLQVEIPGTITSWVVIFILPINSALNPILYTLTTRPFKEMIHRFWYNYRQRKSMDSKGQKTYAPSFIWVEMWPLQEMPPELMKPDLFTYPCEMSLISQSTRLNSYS

T2: mouse RXFP1 (mouse, UniProt Q6R6I7 1-758)
T2 sequence (looked up): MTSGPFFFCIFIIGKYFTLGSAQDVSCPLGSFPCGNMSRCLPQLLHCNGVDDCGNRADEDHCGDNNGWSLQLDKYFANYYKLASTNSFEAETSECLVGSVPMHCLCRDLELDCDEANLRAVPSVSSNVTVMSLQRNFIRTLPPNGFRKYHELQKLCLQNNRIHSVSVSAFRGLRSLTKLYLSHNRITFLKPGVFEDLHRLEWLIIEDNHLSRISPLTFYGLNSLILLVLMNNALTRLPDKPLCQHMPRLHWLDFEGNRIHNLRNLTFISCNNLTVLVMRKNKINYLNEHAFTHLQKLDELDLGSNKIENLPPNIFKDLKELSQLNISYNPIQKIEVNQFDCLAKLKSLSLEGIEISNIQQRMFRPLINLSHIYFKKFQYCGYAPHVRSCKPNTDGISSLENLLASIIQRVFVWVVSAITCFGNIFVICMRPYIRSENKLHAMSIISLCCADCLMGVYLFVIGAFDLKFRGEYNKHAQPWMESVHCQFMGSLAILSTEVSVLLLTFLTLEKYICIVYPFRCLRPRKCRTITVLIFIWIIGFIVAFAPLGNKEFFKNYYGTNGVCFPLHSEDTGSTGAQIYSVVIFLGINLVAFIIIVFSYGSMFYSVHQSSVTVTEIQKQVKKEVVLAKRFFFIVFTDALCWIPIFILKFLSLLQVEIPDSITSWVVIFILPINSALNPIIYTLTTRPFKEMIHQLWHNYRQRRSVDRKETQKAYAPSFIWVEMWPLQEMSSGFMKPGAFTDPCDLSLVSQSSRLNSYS

B1: RELAX0110 (Fc fusion)
chain 1: DKTHTCPPCPAPEFEGGPSVFLFPPKPKDTLMISRTPEVTCVVVDVSHEDPEVKFNWYVDGVEVHNAKTKPREEQYNSTYRVVSVLTVLHQDWLNGKEYKCKVSNKALPASIEKTISKAKGQPREPQVYTLPPCREEMTKNQVSLWCLVKGFYPSDIAVEWESNGQPENNYKTTPPVLDSDGSFFLYSKLTVDKSRWQQGNVFSCSVMHEALHNHYTQKSLSLSPGGGGGSGGGGGSQLYSALANKCCHVGCTKRSLARFC
chain 2: DKTHTCPPCPAPEFEGGPSVFLFPPKPKDTLMISRTPEVTCVVVDVSHEDPEVKFNWYVDGVEVHNAKTKPREEQYNSTYRVVSVLTVLHQDWLNGKEYKCKVSNKALPASIEKTISKAKGQPREPQVYTLPPCREEMTKNQVSLWCLVKGFYPSDIAVEWESNGQPENNYKTTPPVLDSDGSFFLYSKLTVDKSRWQQGNVFSCSVMHEALHNHYTQKSLSLSPGAAPAPAPAPAPAPAGSSWMEEVIKLCGRELVRAQIAICGMSTWS
B2: RELAX0111 (Fc fusion)
chain 1: DKTHTCPPCPAPEFEGGPSVFLFPPKPKDTLMISRTPEVTCVVVDVSHEDPEVKFNWYVDGVEVHNAKTKPREEQYNSTYRVVSVLTVLHQDWLNGKEYKCKVSNKALPASIEKTISKAKGQPREPQVYTLPPCREEMTKNQVSLWCLVKGFYPSDIAVEWESNGQPENNYKTTPPVLDSDGSFFLYSKLTVDKSRWQQGNVFSCSVMHEALHNHYTQKSLSLSPGGGGGGSQLYSALANKCCHVGCTKRSLARFC
chain 2: B1 chain 2
B3: RELAX0039 (Fc fusion)
chain 1: DKTHTACPPCPAPEFEGGPSVFLFPPKPKDTLMISRTPEVTCVVVDVSHEDPEVKFNWYVDGVEVHNAKTKPREEQYNSTYRVVSVLTVLHQDWLNGKEYKCKVSNKALPASIEKTISKAKGQPREPQVYTLPPCREEMTKNQVSLWCLVKGFYPSDIAVEWESNGQPENNYKTTPPVLDSDGSFFLYSKLTVDKSRWQQGNVFSCSVMHEALHNHYTQKSLSLSPGGGGGSGGGGSGGGGSGGGGGSQLYSALANMCCHVGCTKRSLARFC
chain 2: DKTHTCPPCPAPEFEGGPSVFLFPPKPKDTLMISRTPEVTCVVVDVSHEDPEVKFNWYVDGVEVHNAKTKPREEQYNSTYRVVSVLTVLHQDWLNGKEYKCKVSNKALPASIEKTISKAKGQPREPQVCTLPPSREEMTKNQVSLSCAVKGFYPSDIAVEWESNGQPENNYKTTPPVLDSDGSFFLVSKLTVDKSRWQQGNVFSCSVMHEALHNHYTQKSLSLSPGGGGGSGGGGSGGGGSGGGGGSSWMEEVIKLCGRELVRAQIAICGMSTWS
B4: RELAX0071 (Fc fusion)
chain 1: DKTHTCPPCPAPEFEGGPSVFLFPPKPKDTLMISRTPEVTCVVVDVSHEDPEVKFNWYVDGVEVHNAKTKPREEQYNSTYRVVSVLTVLHQDWLNGKEYKCKVSNKALPASIEKTISKAKGQPREPQVYTLPPCREEMTKNQVSLWCLVKGFYPSDIAVEWESNGQPENNYKTTPPVLDSDGSFFLYSKLTVDKSRWQQGNVFSCSVMHEALHNHYTQKSLSLSPGGGGGSGGGGSGGGGSGGGGGSQLYSALANKCCHVGCTKRSLAQFC
chain 2: B3 chain 2
B5: RELAX0069 (Fc fusion)
chain 1: B4 chain 1 with Q269M
chain 2: B3 chain 2
B6: RELAX0075 (Fc fusion)
chain 1: B4 chain 1 with Q269R, F270I
chain 2: B3 chain 2
B7: RELAX0041 (Fc fusion)
chain 1: B3 chain 1 with M257H
chain 2: B3 chain 2
B8: RELAX0043 (Fc fusion)
chain 1: B3 chain 1 with M257E
chain 2: B3 chain 2
B9: RELAX0074 (Fc fusion)
chain 1: B4 chain 1 with Q269S
chain 2: B3 chain 2
B10: RELAX0052 (Fc fusion)
chain 1: B3 chain 1 with M257K, R266E
chain 2: B3 chain 2
B11: RELAX0072 (Fc fusion)
chain 1: B4 chain 1 with Q269A
chain 2: B3 chain 2
B12: RELAX0073 (Fc fusion)
chain 1: B4 chain 1 with Q269Y
chain 2: B3 chain 2
B13: RELAX0040 (Fc fusion)
chain 1: B3 chain 1 with M257L
chain 2: B3 chain 2
B14: RELAX0070 (Fc fusion)
chain 1: B4 chain 1 with Q269I
chain 2: B3 chain 2
B15: RELAX0063 (Fc fusion)
chain 1: B4 chain 1 with Q269R, F270A
chain 2: B3 chain 2
B16: RELAX0053 (Fc fusion)
chain 1: B3 chain 1 with M257K, R266H
chain 2: B3 chain 2

These binders were tested against T3, human RXFP2 (human, UniProt Q8WXD0 1-754) (assay: cell-based or functional assay).
T3 sequence (Q8WXD0 whole entry): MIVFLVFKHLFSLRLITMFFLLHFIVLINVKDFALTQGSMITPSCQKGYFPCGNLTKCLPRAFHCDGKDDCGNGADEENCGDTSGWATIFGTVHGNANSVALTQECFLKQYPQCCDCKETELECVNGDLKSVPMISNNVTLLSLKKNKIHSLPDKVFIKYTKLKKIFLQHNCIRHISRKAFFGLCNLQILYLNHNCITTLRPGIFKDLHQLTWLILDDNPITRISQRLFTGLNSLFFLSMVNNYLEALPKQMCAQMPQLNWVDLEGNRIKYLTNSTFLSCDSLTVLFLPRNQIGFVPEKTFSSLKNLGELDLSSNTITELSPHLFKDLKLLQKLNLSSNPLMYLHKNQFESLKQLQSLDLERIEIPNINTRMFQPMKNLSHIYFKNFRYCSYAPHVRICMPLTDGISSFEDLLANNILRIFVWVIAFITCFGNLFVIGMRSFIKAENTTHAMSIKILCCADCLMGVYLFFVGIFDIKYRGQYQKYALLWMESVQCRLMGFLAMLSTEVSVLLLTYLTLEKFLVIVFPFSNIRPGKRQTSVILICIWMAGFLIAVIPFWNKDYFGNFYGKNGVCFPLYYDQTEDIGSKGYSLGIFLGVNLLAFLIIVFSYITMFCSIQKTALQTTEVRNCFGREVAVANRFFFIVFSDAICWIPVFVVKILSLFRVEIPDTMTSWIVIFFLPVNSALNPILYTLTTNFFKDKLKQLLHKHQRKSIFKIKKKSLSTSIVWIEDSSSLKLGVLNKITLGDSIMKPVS

Row | Binder | EC50 hRXFP2 (M), cAMP HTRF assay [M]
1 | B1 | > 6.07e-08
2 | B2 | > 6.06e-08

Each binder was assayed against T1, human RXFP1 (assay: cell-based or functional assay).

Row | Binder | EC50 hRXFP1 (M), cAMP HTRF assay [M]
3 | B1 | 1.88e-09
4 | B2 | 1.93e-09

The binders below were run against T2, mouse RXFP1 (assay: cell-based or functional assay).

Row | Binder | EC50 mRXFP1 (M), cAMP HTRF assay [M]
5 | B1 | 1.11e-09
6 | B2 | 1.24e-09

Target: T3, human RXFP2
Test: cell-based or functional assay
Remark: another data set of the same source

Row | Binder | EC50 hRXFP2 (M), cAMP HTRF assay [M]
7 | B3 | 1.08e-07
8 | B4 | 1.15e-07
9 | B5 | > 1.62e-07
10 | B6 | > 1.43e-07
11 | B7 | 1.18e-07
12 | B8 | > 1.58e-07
13 | B9 | 9.21e-08
14 | B10 | 1.05e-07
15 | B11 | > 2.3e-07
16 | B12 | 8.63e-08
17 | B13 | > 1.27e-07
18 | B14 | 1.07e-07
19 | B15 | > 1.38e-07
20 | B16 | > 1.79e-07

Target: T1, human RXFP1
Test: cell-based or functional assay
Remark: another data set of the same source

Row | Binder | EC50 hRXFP1 (M), cAMP HTRF assay [M]
21 | B3 | 6.54e-11
22 | B4 | 6.87e-11
23 | B5 | 5.76e-11
24 | B6 | 9.47e-11
25 | B7 | 6.22e-11
26 | B8 | 7.98e-11
27 | B9 | 5.45e-11
28 | B10 | 9.67e-11
29 | B11 | 8.53e-11
30 | B12 | 5.7e-11
31 | B13 | 5.92e-11
32 | B14 | 6.67e-11
33 | B15 | 1.96e-10
34 | B16 | 7.15e-11

Target: T2, mouse RXFP1
Test: cell-based or functional assay
Remark: another data set of the same source

Row | Binder | EC50 mRXFP1 (M), cAMP HTRF assay [M]
35 | B3 | 4.25e-11
36 | B4 | 3.93e-11
37 | B5 | 3.69e-11
38 | B6 | 6.14e-11
39 | B7 | 3.17e-11
40 | B8 | 5.58e-11
41 | B9 | 4.53e-11
42 | B10 | 5.69e-11
43 | B11 | 4.03e-11
44 | B12 | 4.15e-11
45 | B13 | 2.92e-11
46 | B14 | 5.02e-11
47 | B15 | 4.46e-11
48 | B16 | 4.36e-11
